Measured values taken from the PETadex activity labels (doi:10.1186/s13568-014-0044-9).

What was measured:
p-NP-C4 = conditions: pH 8.5; 25 °C
pNPB [1] = assay: Proxy for plastic degradation [Km]; conditions: pH 8.5
pNPB [2] = assay: Proxy for plastic degradation [kcat] (s⁻¹); conditions: pH 8.5
pNPB [3] = assay: Proxy for plastic degradation [Residual activity]; conditions: pH 8.5
pNPB [4] = assay: Proxy for plastic degradation [Relative activity]

Protein | Km (p-NP-C4) | kcat (p-NP-C4) | kcat/Km (p-NP-C4) | Proxy for plastic degradation (pNPB [1]) | Proxy for plastic degradation (pNPB [2]) | Proxy for plastic degradation (pNPB [2]; 25 °C) | Proxy for plastic degradation (pNPB [3]; 50 °C, 0 h) | Proxy for plastic degradation (pNPB [3]; 50 °C, 10 h) | Proxy for plastic degradation (pNPB [3]; 50 °C, 20 h) | Proxy for plastic degradation (pNPB [3]; 50 °C, 30 h) | Proxy for plastic degradation (pNPB [3]; 50 °C, 45 h) | Proxy for plastic degradation (pNPB [3]; 50 °C, 60 h) | Proxy for plastic degradation (pNPB [3]; 55 °C, 0 h) | Proxy for plastic degradation (pNPB [3]; 55 °C, 10 h) | Proxy for plastic degradation (pNPB [3]; 55 °C, 20 h) | Proxy for plastic degradation (pNPB [3]; 55 °C, 30 h) | Proxy for plastic degradation (pNPB [3]; 55 °C, 45 h) | Proxy for plastic degradation (pNPB [3]; 55 °C, 60 h) | Proxy for plastic degradation (pNPB [3]; 60 °C, 0 h) | Proxy for plastic degradation (pNPB [3]; 60 °C, 10 h) | also measured
unnamed (protein) MSLRKSFGLLSATAALVAGLVAAPPAQAAANPYQRGPDPTESLLRAARGPFAVSEQSVSRLSVSGFGGGRIYYPTTTSQGTFGAIAISPGFTASWSSLAWLGPRLASHGFVVIGIETNTRLDQPDSRGRQLLAALDYLTQRSSVRNRVDASRLAVAGHSMGGGGTLEAAKSRTSLKAAIPIAPWNLDKTWPEVRTPTLIIGGELDSIAPVATHSIPFYNSLTNAREKAYLELNNASHFFPQFSNDTMAKFMISWMKRFIDDDTRYDQFLCPPPRAIGDISDYRDTCPHT | 88.8 µM | 2.3 s⁻¹ | 25900 M⁻¹ s⁻¹ | 88.8 µM | 2.3 | 2.3 | 100% | 100% | 105% | 110% | 115% | 114% | 100% | 103% | 95% | 90% | 89% | 80% | 100% | 35% | Proxy for plastic degradation (pNPB [3]; 60 °C, 20 h): 32%; Proxy for plastic degradation (pNPB [3]; 60 °C, 30 h): 30%; Proxy for plastic degradation (pNPB [3]; 60 °C, 45 h): 25%; Proxy for plastic degradation (pNPB [3]; 60 °C, 60 h): 25%; Proxy for plastic degradation (pNPB [4]; 30 °C): 35%; Proxy for plastic degradation (pNPB [4]; 40 °C): 50%; Proxy for plastic degradation (pNPB [4]; 50 °C): 70%; Proxy for plastic degradation (pNPB [4]; 55 °C): 85%; Proxy for plastic degradation (pNPB [4]; 60 °C): 100%; Proxy for plastic degradation (pNPB [4]; 65 °C): 70%; Proxy for plastic degradation (pNPB [4]; 70 °C): 35%; Proxy for plastic degradation (pNPB [4]; pH 6.5): 10%; Proxy for plastic degradation (pNPB [4]; pH 7): 22%; Proxy for plastic degradation (pNPB [4]; pH 7.5): 50%; Proxy for plastic degradation (pNPB [4]; pH 8): 85%; Proxy for plastic degradation (pNPB [4]; pH 8.5): 100%; Proxy for plastic degradation (pNPB [4]; pH 9): 95%; Proxy for plastic degradation (pNPB [4]; pH 9.5): 75%
unnamed (protein) MKRTLKRALSLLPAAALAASALVAASPAQAAANPYQRGPNPTEASITAARGPFNTAEITVSRLSVSGFGGGKIYYPTTTSEGTFGAIAISPGFTAYWSSLEWLGHRLASQGFVVIGIETNTTLDQPDQRGQQLLAALDYLTQRSAVRDRVDASRLAVAGHSMGGGGSLEAAKARTSLKAAIPLAPWNLDKTWPEVRTPTLIIGGELDAVAPVATHSIPFYNSLSNAPEKAYLELDNASHFFPNITNTQMAKYMIAWMKRFIDDDTRYTQFLCPPPSTGLLSDFSDARFTCPM | 83 µM | 12.4 s⁻¹ | 149000 M⁻¹ s⁻¹ | 83.1 µM | 12.4 | 12.4 | 100% | 85% | 75% | 70% | 45% | 40% | 100% | 15% | 15% | 15% | 14% | 15% | 100% | 15% | Proxy for plastic degradation (pNPB [3]; 60 °C, 20 h): 15%; Proxy for plastic degradation (pNPB [3]; 60 °C, 30 h): 15%; Proxy for plastic degradation (pNPB [3]; 60 °C, 45 h): 15%; Proxy for plastic degradation (pNPB [3]; 60 °C, 60 h): 14%; Proxy for plastic degradation (pNPB [4]; 30 °C): 25%; Proxy for plastic degradation (pNPB [4]; 40 °C): 40%; Proxy for plastic degradation (pNPB [4]; 50 °C): 75%; Proxy for plastic degradation (pNPB [4]; 55 °C): 100%; Proxy for plastic degradation (pNPB [4]; 60 °C): 80%; Proxy for plastic degradation (pNPB [4]; 65 °C): 50%; Proxy for plastic degradation (pNPB [4]; 70 °C): 10%; Proxy for plastic degradation (pNPB [4]; pH 6.5): 10%; Proxy for plastic degradation (pNPB [4]; pH 7): 22%; Proxy for plastic degradation (pNPB [4]; pH 7.5): 55%; Proxy for plastic degradation (pNPB [4]; pH 8): 95%; Proxy for plastic degradation (pNPB [4]; pH 8.5): 100%; Proxy for plastic degradation (pNPB [4]; pH 9): 90%; Proxy for plastic degradation (pNPB [4]; pH 9.5): 65%
